From the supplement of paper PMC10567573 come the findings set out here.

B1: ZBTB22 (parent)
chain: FSSSSQEAFAASAVGSGERRGGGP
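Also: lentivirally expressed fusions sorted by FACS into six bins by GFP to DsRed ratio, PSI derived from sequencing read proportions per bin multiplied by bin number.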

In this data set the parent is B1. Kind of data set: protein stability index of a GFP-peptide fusion (GPS, HEK-293T) (PSI 1-6); higher = more stable. Particulars: c terminus: a fixed tail appended.
Consider FSSSSQEAFAASAVGSGERRGGGF, for which the protein stability index worked out at 2.73. Turning to FSSSSQEAFAASAVGSGERRGGGW, the protein stability index is 2.22. The same measure for FSSSSQEAFAASAVGSGERRGGGY: 2.86; for FSSSSQEAFAASAVGSGERRGGGI: 2.6; for FSSSSQEAFAASAVGSGERRGGGM: 2.43.

Turning to FSSSSQEAFAASAVGSGERRGGGT, the protein stability index is 3.07. For the variant FSSSSQEAFAASAVGSGERRGGGK, the protein stability index worked out at 3.33. The value for FSSSSQEAFAASAVGSGERRGGGR was 3.03; that for FSSSSQEAFAASAVGSGERRGGGG was 2.6; that for FSSSSQEAFAASAVGSGERRGGGH was 3.75. In the case of FSSSSQEAFAASAVGSGERRGGGV, the protein stability index came out at 2.92. The same measure for FSSSSQEAFAASAVGSGERRGGGE: 3.8; for FSSSSQEAFAASAVGSGERRGGGC: 3.21. The same measure for FSSSSQEAFAASAVGSGERRGGGD: 3.89; for FSSSSQEAFAASAVGSGERRGGGS: 3.41; for FSSSSQEAFAASAVGSGERRGGGA: 3.5. The same measure for FSSSSQEAFAASAVGSGERRGGGQ: 2.79; for FSSSSQEAFAASAVGSGERRGGGL: 3.32. On to FSSSSQEAFAASAVGSGERRGGGN, for which the protein stability index is 3.29. The value for FSSSSQEAFAASAVGSGERRCGGP was 3.48. The value for FSSSSQEAFAASAVGSGERRFGGP was 3.22; that for FSSSSQEAFAASAVGSGERRYGGP was 3.22. The same measure for FSSSSQEAFAASAVGSGERRMGGP: 3.4; for FSSSSQEAFAASAVGSGERREGGP: 3.68; for FSSSSQEAFAASAVGSGERRWGGP: 2.31. For FSSSSQEAFAASAVGSGERRLGGP, the protein stability index turned out to be 3.05. As for FSSSSQEAFAASAVGSGERRIGGP, the protein stability index amounted to 3.48. On to FSSSSQEAFAASAVGSGERRHGGP, for which the protein stability index was 3.03. The value for FSSSSQEAFAASAVGSGERRTGGP was 2.94; that for FSSSSQEAFAASAVGSGERRRGGP was 3.35. The same measure for FSSSSQEAFAASAVGSGERRKGGP: 2.69; for FSSSSQEAFAASAVGSGERRVGGP: 2.84; for FSSSSQEAFAASAVGSGERRQGGP: 3.73. The same measure for FSSSSQEAFAASAVGSGERRDGGP: 4.06; for FSSSSQEAFAASAVGSGERRNGGP: 3.45; for FSSSSQEAFAASAVGSGERRSGGP: 3.85. Take FSSSSQEAFAASAVGSGERRAGGP: the protein stability index worked out at 3.64. The value for FSSSSQEAFAASAVGSGERRPGGP was 3.69; that for FSSSSQEAFAASAVGSGERIGGGP was 3.17; that for FSSSSQEAFAASAVGSGERQGGGP was 3.71. The value for FSSSSQEAFAASAVGSGERKGGGP was 3.37. The value for FSSSSQEAFAASAVGSGERPGGGP was 4.34; that for FSSSSQEAFAASAVGSGERAGGGP was 3.42.

As to FSSSSQEAFAASAVGSGERVGGGP, the protein stability index turned out to be 3.41.

On to FSSSSQEAFAASAVGSGEREGGGP, for which the protein stability index amounted to 4.12. In the case of FSSSSQEAFAASAVGSGERSGGGP, the protein stability index is 3.68. The same measure for FSSSSQEAFAASAVGSGERHGGGP: 2.96; for FSSSSQEAFAASAVGSGERTGGGP: 3.63; for FSSSSQEAFAASAVGSGERCGGGP: 2.9. The same measure for FSSSSQEAFAASAVGSGERNGGGP: 3.36; for FSSSSQEAFAASAVGSGERYGGGP: 3.3; for FSSSSQEAFAASAVGSGERLGGGP: 3.78.

Take FSSSSQEAFAASAVGSGERFGGGP: the protein stability index is 2.97. The value for FSSSSQEAFAASAVGSGERWGGGP was 2.21; that for FSSSSQEAFAASAVGSGERMGGGP was 3.3; that for FSSSSQEAFAASAVGSGERGGGGP was 3.14.

As to FSSSSQEAFAASAVGSGERDGGGP, the protein stability index came out at 3.64.

As to FSSSSQEAFAASAVGSGEMRGGGP, the protein stability index was 3.35. The value for FSSSSQEAFAASAVGSGEYRGGGP was 3.32; that for FSSSSQEAFAASAVGSGEWRGGGP was 2.04; that for FSSSSQEAFAASAVGSGETRGGGP was 3.78. The same measure for FSSSSQEAFAASAVGSGEGRGGGP: 3.82; for FSSSSQEAFAASAVGSGELRGGGP: 2.87; for FSSSSQEAFAASAVGSGEVRGGGP: 3.46.

On to FSSSSQEAFAASAVGSGEIRGGGP, for which the protein stability index worked out at 3.23.

For FSSSSQEAFAASAVGSGECRGGGP, the protein stability index is 3.07.

As to FSSSSQEAFAASAVGSGENRGGGP, the protein stability index is 3.49.

Turning to FSSSSQEAFAASAVGSGEFRGGGP, the protein stability index turned out to be 3.15. The value for FSSSSQEAFAASAVGSGEARGGGP was 3.43; that for FSSSSQEAFAASAVGSGESRGGGP was 3.86.

As to FSSSSQEAFAASAVGSGEDRGGGP, the protein stability index was found to be 2.53.

With FSSSSQEAFAASAVGSGEKRGGGP, the protein stability index amounted to 3.41. The same measure for FSSSSQEAFAASAVGSGEERGGGP: 4.24; for FSSSSQEAFAASAVGSGEQRGGGP: 3.47. The value for FSSSSQEAFAASAVGSGEHRGGGP was 3.34; that for FSSSSQEAFAASAVGSGEPRGGGP was 3.36; that for FSSSSQEAFAASAVGSGYRRGGGP was 2.69.

Consider FSSSSQEAFAASAVGSGTRRGGGP, for which the protein stability index is 2.87. The same measure for FSSSSQEAFAASAVGSGQRRGGGP: 3.24. With FSSSSQEAFAASAVGSGARRGGGP, the protein stability index stood at 3.48.

With FSSSSQEAFAASAVGSGCRRGGGP, the protein stability index was determined as 2.96.

FSSSSQEAFAASAVGSGFRRGGGP: the protein stability index was 2.86. In the case of FSSSSQEAFAASAVGSGMRRGGGP, the protein stability index was found to be 2.96. The same measure for FSSSSQEAFAASAVGSGLRRGGGP: 2.85; for FSSSSQEAFAASAVGSGHRRGGGP: 3.65; for FSSSSQEAFAASAVGSGSRRGGGP: 2.28. Regarding FSSSSQEAFAASAVGSGIRRGGGP, the protein stability index was determined as 2.36. The value for FSSSSQEAFAASAVGSGDRRGGGP was 2.98; that for FSSSSQEAFAASAVGSGVRRGGGP was 2.49; that for FSSSSQEAFAASAVGSGWRRGGGP was 2.92. The same measure for FSSSSQEAFAASAVGSGGRRGGGP: 3.84.

On to FSSSSQEAFAASAVGSGNRRGGGP, for which the protein stability index worked out at 2.55. The same measure for FSSSSQEAFAASAVGSGPRRGGGP: 2.97.

Turning to FSSSSQEAFAASAVGSGKRRGGGP, the protein stability index amounted to 3.31.
